The results in this text go back to patent US20160264653A1 (published 2016).

B3: human ephrin-A4 ligand (EFNA4) expressed on the cell surface (ligand)
chain: LRHVVYWNSSNPRLLRGDAVVELGLNDYLDIVCPHYEGPGPPEGPETFALYMVDWPGYESCQAEGPRAYKRWVCSLPFGHVQFSEKIQRFTPFSLGFEFLPGETYYYISVPTPESSGQCLRLQVSVCCKERKSESAHPVGSPGES
notes: GPI-anchored; Cells used: HEK293T.hEFNA4 (retroviral overexpression), parental HEK293T (low level), Jurkat, Z138, K562, PC3, NTX tumor cells; also called hEFNA4; HEK293T.hEFNA4 cells

Experiment [1] addresses T1, mouse ephrin-A4-His (mouse, UniProt O08542 26-175, limits assumed).
T1 construct: also called murine EFNA4-His; not shown: His tag
T1 sequence (looked up): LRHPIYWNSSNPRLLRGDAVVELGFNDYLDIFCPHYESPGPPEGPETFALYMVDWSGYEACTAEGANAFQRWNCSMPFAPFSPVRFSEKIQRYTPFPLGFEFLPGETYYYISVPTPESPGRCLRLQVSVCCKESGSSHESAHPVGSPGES
Put plainly: ELISA; titrated ephrin-A4-His coated, 0.5 ug/ml hSC4.15 (FIG. 13C). In general terms: In an ELISA, binding on a coated surface is turned into a signal by an enzyme label.

The target of experiment [2] is T2, human ephrin-A4-His (human, UniProt P52798 26-170, limits assumed).
T2 construct: also called hEFNA4-ECD-His; EFNA4 His fusion protein; not shown: His tag
T2 sequence: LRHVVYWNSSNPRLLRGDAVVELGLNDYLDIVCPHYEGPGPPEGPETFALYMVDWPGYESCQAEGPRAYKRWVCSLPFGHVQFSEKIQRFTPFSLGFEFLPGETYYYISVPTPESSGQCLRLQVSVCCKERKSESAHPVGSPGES
The description is as above.

Experiment [3] addresses B3. Kind of experiment: cell-based or functional assay.
Experiment [4] addresses T3, EFNA4 antigen (human, UniProt P52798 26-170, limits assumed).
T3 construct: also called ephrin-A4 antigen
T3 sequence: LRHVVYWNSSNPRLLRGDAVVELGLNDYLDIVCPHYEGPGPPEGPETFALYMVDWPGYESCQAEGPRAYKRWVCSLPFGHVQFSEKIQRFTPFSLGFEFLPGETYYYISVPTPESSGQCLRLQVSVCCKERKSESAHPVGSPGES
Put plainly: SPR (Biacore); fixed antibody, antigen concentration series; 1:1 Langmuir model. In general terms: In SPR one partner is held on a chip, and binding of the other changes the refractive index at the surface.
Experimental: Finally, the affinity of selected modulators was measured by surface plasmon resonance (Biacore System, GE Healthcare). Based on a standard antigen concentration series and using a 1:1 Langmuir binding model, the Kd of the antibody binding to antigen and the kinetic constants kₒₙ and koff were determined.

In experiment [5] the target is T4, Fc portion of human IgG alone (human, UniProt P01857-1 100-330 = IgG part, limits assumed).
T4 construct: domain: Fc; also called human IgG Fcgamma1 fragment
Put plainly: flow cytometry on Jurkat cells (known to express EFNA) (FIG. 12A). Background: In flow cytometry, cells or beads pass a laser one at a time.

Experiment [6] deals with T5, EphB4-Fc (human, UniProt P54760 16-539, limits assumed).
T5 construct: extracellular domain; not shown: human IgG1 Fc
T5 sequence (looked up): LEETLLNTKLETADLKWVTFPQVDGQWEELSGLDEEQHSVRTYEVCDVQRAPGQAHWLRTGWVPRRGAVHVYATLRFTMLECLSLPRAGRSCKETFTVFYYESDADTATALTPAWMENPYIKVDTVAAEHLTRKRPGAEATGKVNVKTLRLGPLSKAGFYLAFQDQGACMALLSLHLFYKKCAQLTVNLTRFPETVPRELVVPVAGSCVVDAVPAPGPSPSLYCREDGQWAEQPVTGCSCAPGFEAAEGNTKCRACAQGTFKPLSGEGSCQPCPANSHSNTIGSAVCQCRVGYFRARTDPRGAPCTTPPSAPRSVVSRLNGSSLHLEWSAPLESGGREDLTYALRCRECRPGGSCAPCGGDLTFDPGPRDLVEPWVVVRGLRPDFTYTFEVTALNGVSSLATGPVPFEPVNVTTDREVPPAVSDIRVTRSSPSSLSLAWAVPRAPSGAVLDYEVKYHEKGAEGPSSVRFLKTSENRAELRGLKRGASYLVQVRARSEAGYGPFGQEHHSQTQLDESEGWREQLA
Put plainly: flow cytometry; EphB-Fc on HEK293T.hEFNA4 cells (FIG. 20B).

B1: hSC4.15 (antibody, V domains shown)
VH: EVQLVESGGGLVKPGGSLRLSCAASGFTFSTYGMSWVRQAPGKGLEWVATISSGGTYTYYPDSVKGRFKISRDNAKNSLYLQMNSLRAEDTAVYYCTRHDPNDGYYFLFAYWGQGTLVTVSS
VL: EIVLTQSPGTLSLSPGERATLSCKASQSVGNNVAWYQQKPGQAPRLLIYYASNRYTGIPDRFSGSGSGTDFTLTISRLEPEDFAVYYCQQHYSSPLTFGAGTKLEIK
notes: also called humanized SC4.15
With B1, in experiment [1], the binding result was “binds”. Also, in experiment [2], the binding result was “binds”. Further, in experiment [3], the “EC50 (pM) of killing, saporin-Fab in vitro cytotoxicity assay, HEK293T.hEFNA4 cells” value is 13.7 pM and the “EC50 (pM) of killing, saporin-Fab in vitro cytotoxicity assay, PC3 cells” value was 5.4 pM.

B2: hSC4.47 (antibody, human IgG1, V domains shown)
VH: QVQLVQSGAEVKKPGASVKVSCKASGYTFTYFYMNWVRQAPGQGLEWVGQINPNNGGTAYAQKFQGRVTMTRDTSTSTVYMELSSLRSEDTAVYYCARWVGTHYFDYWGQGTTLTVSS
VL: EIVLTQSPATLSLSPGERATLSCRASQSVSSSSYTYIHWYQQKPGQAPRLLINFASNLESGIPARFSGSGSGTDFTLTISSLEPEDFAVYYCQHSWEIPPTFGGGTKLEIK
notes: also called humanized SC4.47
As to B2, the Kd (in general, the constant that tells how readily two partners part at equilibrium) in experiment [4] is under 0.1 nM.

Regarding B3, the binding result in experiment [5] and in experiment [6] was “no binding” throughout.
